The labels stand for the following.
B1: Mitogen-activated protein kinase kinase kinase 3 (Homo sapiens), Q99759 (parent)
chain: MDEQEALNSIMNDLVALQMNRRHRMPGYETMKNKDTGHSNRQSDVRIKFEHNGERRIIAFSRPVKYEDVEHKVTTVFGQPLDLHYMNNELSILLKNQDDLDKAIDILDRSSSMKSLRILLLSQDRNHNSSSPHSGVSRQVRIKASQSAGDINTIYQPPEPRSRHLSVSSQNPGRSSPPPGYVPERQQHIARQGSYTSINSEGEFIPETSEQCMLDPLSSAENSLSGSCQSLDRSADSPSFRKSRMSRAQSFPDNRQEYSDRETQLYDKGVKGGTYPRRYHVSVHHKDYSDGRRTFPRIRRHQGNLFTLVPSSRSLSTNGENMGLAVQYLDPRGRLRSADSENALSVQERNVPTKSPSAPINWRRGKLLGQGAFGRVYLCYDVDTGRELASKQVQFDPDSPETSKEVSALECEIQLLKNLQHERIVQYYGCLRDRAEKTLTIFMEYMPGGSVKDQLKAYGALTESVTRKYTRQILEGMSYLHSNMIVHRDIKGANILRDSAGNVKLGDFGASKRLQTICMSGTGMRSVTGTPYWMSPEVISGEGYGRKADVWSLGCTVVEMLTEKPPWAEYEAMAAIFKIATQPTNPQLPSHISEHGRDFLRRIFVEARQRPSAEELLTHHFAQLMY

Variants of B1 are the subject of the assay. As to conditions: with CCM2, Q9BSQ5-1.
Sequence of CCM2, Q9BSQ5-1 (Q9BSQ5 whole entry): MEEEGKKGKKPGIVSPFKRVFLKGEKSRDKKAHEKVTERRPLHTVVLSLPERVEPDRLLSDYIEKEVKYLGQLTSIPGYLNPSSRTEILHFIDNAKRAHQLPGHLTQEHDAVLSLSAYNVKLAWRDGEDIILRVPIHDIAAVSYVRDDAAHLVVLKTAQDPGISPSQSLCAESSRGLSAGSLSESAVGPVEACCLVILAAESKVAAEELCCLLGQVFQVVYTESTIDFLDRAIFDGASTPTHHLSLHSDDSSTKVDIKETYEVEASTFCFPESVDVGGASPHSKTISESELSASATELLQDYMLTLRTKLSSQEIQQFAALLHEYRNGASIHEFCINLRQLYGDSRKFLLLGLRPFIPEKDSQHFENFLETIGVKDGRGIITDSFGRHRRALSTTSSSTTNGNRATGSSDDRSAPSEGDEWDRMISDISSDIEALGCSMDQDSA
Regarding L7D, the “effect of a mutation on the interaction” value is “disrupting interaction strength”. As to I10D, the “effect of a mutation on the interaction” value is “disrupting interaction strength”. Next, L14D: “disrupting interaction strength”. In the case of L17D, the “effect of a mutation on the interaction” value is “disrupting interaction strength”.

For the origin of these results see IntAct's records for PubMed 25982527.
